Results on one substance are retold here after patent US20250270332A1.

The experiment addresses FZD/LRP. Kind of experiment: cell-based or functional assay.

Wnt3a, recombinantly produced ligand, sequence (P56704 19-352): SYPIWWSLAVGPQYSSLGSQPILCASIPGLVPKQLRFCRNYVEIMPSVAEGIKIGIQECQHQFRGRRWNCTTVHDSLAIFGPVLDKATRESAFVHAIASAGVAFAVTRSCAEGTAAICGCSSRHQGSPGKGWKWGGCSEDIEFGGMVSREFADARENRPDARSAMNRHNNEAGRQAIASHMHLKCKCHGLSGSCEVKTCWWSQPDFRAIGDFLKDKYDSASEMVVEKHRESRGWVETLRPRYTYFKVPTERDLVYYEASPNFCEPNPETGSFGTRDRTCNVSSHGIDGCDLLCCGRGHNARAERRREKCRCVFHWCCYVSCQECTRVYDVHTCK

In the case of Wnt3a, recombinantly produced ligand, the % Wnt Maxima Avg was found to be 100%; the EC50 (nM), TOPFLASH assay was determined as 6 nM; the Maximal Signal (% Wnt3a maxima) (% Wnt3a maxima) was found to be 100; the Topflash EC50 (nM) Avg is 6 nM.
